Experimental data taken from US20150322129A1 (Sanofi, published 2015).
Read-outs that look alike come from different tables or passages of the source. Numbered stars: 1 amine (or outer) side, 2 acyl side, 3 side chain; on linkers, the order of the positions; unused ones are H or OH. Square brackets hold non-standard residues; d marks the D form. Side chains are listed from the residue outwards. Ends that are not written are not given here. * marks the point of attachment. γGlu = O=C(O)[C@H](CCC(=O)[*:2])N[*:1]; Stearoyl = CCCCCCCCCCCCCCCCCC(=O)*; Palmitoyl = CCCCCCCCCCCCCCCC(=O)*; Aib = CC(C)(N)C(=O)O

T1: human GIP receptor (human, UniProt P48546 22-466)
T1 sequence (looked up): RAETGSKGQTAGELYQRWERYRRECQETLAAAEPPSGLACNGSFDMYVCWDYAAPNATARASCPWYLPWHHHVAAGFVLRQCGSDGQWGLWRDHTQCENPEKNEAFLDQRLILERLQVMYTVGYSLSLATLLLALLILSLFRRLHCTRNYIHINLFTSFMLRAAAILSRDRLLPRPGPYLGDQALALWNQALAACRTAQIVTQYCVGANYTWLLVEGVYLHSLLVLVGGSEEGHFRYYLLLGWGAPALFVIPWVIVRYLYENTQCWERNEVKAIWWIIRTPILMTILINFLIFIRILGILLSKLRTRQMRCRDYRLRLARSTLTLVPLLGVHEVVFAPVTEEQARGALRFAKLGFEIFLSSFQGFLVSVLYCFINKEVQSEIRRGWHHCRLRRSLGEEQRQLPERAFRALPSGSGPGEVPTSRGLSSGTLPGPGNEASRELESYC


Tests used:
Assay in all cases: cell-based or functional assay
human glucagon receptor [1] = biological target: T2, human glucagon receptor (human, UniProt P47871 26-477)
human GIP receptor [2] = biological target: T1, human GIP receptor
human glucagon receptor [3] = biological target: T2, human glucagon receptor; remark: listed apart in the source
human GIP receptor [4] = biological target: T1, human GIP receptor; remark: listed apart in the source
human GLP-1 receptor [5] = biological target: T3, human GLP-1 receptor (human, UniProt P43220 24-463)
human GLP-1 receptor [6] = biological target: T3, human GLP-1 receptor; remark: listed apart in the source

T2 sequence (P47871 26-477): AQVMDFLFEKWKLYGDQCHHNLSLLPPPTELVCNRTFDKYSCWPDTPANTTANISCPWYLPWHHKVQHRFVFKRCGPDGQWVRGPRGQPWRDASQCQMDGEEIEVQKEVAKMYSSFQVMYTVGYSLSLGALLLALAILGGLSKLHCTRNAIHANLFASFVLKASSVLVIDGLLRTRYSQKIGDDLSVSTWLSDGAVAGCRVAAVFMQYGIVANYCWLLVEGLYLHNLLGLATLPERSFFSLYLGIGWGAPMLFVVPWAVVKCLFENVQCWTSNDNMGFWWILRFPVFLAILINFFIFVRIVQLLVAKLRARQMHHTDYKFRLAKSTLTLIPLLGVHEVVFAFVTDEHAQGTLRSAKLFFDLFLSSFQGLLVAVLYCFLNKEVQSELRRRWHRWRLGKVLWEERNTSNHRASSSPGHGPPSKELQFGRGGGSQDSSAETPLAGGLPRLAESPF

Binder	EC50 hGlucagon-R (cAMP formation) (human glucagon receptor [1]) [pM]	EC50 hGIP-1 (cAMP formation) (human GIP receptor [2]) [pM]	EC50 hGlucagon-R (cAMP formation) (human glucagon receptor [3]) [pM]	EC50 hGIP-R (cAMP formation) (human GIP receptor [4]) [pM]	EC50 hGLP-1R (cAMP formation) (human GLP-1 receptor [5]) [pM]	EC50 hGLP-1R (cAMP formation) (human GLP-1 receptor [6]) [pM]
H[Aib]HGTFTSDLSKQK([γGlu-γGlu-Palmitoyl])EEEAVRLFIEWLKAGGPSSGAPPPS-NH2 [SEQ ID NO: 11]	8.9	7.9	8.9	7.9	–	–
H[dS]HGTFTSDLSKQK([γGlu-Palmitoyl])EEEAVRLFIEWLKAGGPSSGAPPPS-NH2 [SEQ ID NO: 14]	58.4	437	58.4	437	4.1	4.1
H-H[dS]HGTFTSDLSKQK([γGlu-Stearoyl])EEEAVRLFIEWLKAGGPSSGAPPPS-NH2 (SMILES CCCCCCCCCCCCCCCCCC(=O)N[C@@H](CCC(=O)NCCCC[C@H](NC(=O)[C@H](CCC(N)=O)NC(=O)[C@H](CCCCN)NC(=O)[C@H](CO)NC(=O)[C@H](CC(C)C)NC(=O)[C@H](CC(=O)O)NC(=O)[C@H](CO)NC(=O)[C@@H](NC(=O)[C@H](Cc1ccccc1)NC(=O)[C@@H](NC(=O)CNC(=O)[C@H](Cc1c[nH]cn1)NC(=O)[C@@H](CO)NC(=O)[C@@H](N)Cc1c[nH]cn1)[C@@H](C)O)[C@@H](C)O)C(=O)N[C@@H](CCC(=O)O)C(=O)N[C@@H](CCC(=O)O)C(=O)N[C@@H](CCC(=O)O)C(=O)N[C@@H](C)C(=O)N[C@H](C(=O)N[C@@H](CCCNC(=N)N)C(=O)N[C@@H](CC(C)C)C(=O)N[C@@H](Cc1ccccc1)C(=O)N[C@H](C(=O)N[C@@H](CCC(=O)O)C(=O)N[C@@H](Cc1c[nH]c2ccccc12)C(=O)N[C@@H](CC(C)C)C(=O)N[C@@H](CCCCN)C(=O)N[C@@H](C)C(=O)NCC(=O)NCC(=O)N1CCC[C@H]1C(=O)N[C@@H](CO)C(=O)N[C@@H](CO)C(=O)NCC(=O)N[C@@H](C)C(=O)N1CCC[C@H]1C(=O)N1CCC[C@H]1C(=O)N1CCC[C@H]1C(=O)N[C@@H](CO)C(N)=O)[C@@H](C)CC)C(C)C)C(=O)O) [SEQ ID NO: 25]	39.9	407	39.9	407	8.1	8.1
H[Aib]HGTFTSDLSKQK([γGlu-Stearoyl])EEEAVRLFIEWLKAGGPSSGAPPPS-NH2 [SEQ ID NO: 7]	5.8	25.6	5.8	25.6	6.5	6.5
H[dS]HGTFTSDLSKQK(Ac)EEEAVRLFIEWLKAGGPSSGAPPPS-NH2 [SEQ ID NO: 35]	2860	4040	–	–	0.4	–
H[dS]HGTFTSDLSKQK([γGlu-γGlu-Palmitoyl])EEEAVRLFIEWLKAGGPSSGAPPPS-NH2 [SEQ ID NO: 13]	22.5	79	22.5	79	–	–
H-H[Aib]HGTFTSDLSKQK(Ac)EEEAVRLFIEWLKAGGPSSGAPPPS-NH2 [SEQ ID NO: 34]	828	25.4	–	–	0.7	–
H[Aib]HGTFTSDLSKQK([γGlu-Palmitoyl])EEEAVRLFIEWLKAGGPSSGAPPPS-NH2 [SEQ ID NO: 12]	12.8	8.8	12.8	8.8	3.3	3.3
